Assay results published in a protein production outcome set (Wang et al. 2014).

Test: label from the status in PepcDB records
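Note: failed if final PepcDB status was selected cloned or expressed and not failed if soluble or beyond.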

| Sequence | protein production |
| --- | --- |
| MSLAKPIEAHTVSPVNPNAQQTTKTVMNWLAHLPNRTENRVLSGAFGGYSHDTFSMAEADRIRSATGQSPAIYGCDYARGWLETANIEDSIDVSCNGDLMSYWKNGGIPQISLHLANPAFQSGHFKTPITNDQYKKILDSSTVEGKRLNAMLSKIADGLQELENQGVPVLFRPLHEMNGEWFWWGLTSYNQKDNERISLYKQLYKKIYHYMTDTRGLDHLIWVYSPDANRDFKTDFYPGASYVDIVGLDAYFQDAYSINGYDQLTALNKPFAFTEVGPQTANGSFDYSLFINAIKQKYPKTIYFLAWNDEWSAAVNKGASALYHDSWTLNKGEIWNGDSLTPIVEEGHHHHHH | not failed |
| MSLANKPLAKALETISGIPITPFRKSDGSIDWHHYKETVDRIVDNGIDVIVPCGNTSEFYALSLEEAKEEVRRTVEYVHGRALVVAGIGYATSTAIELGNAAKAAGADAVMIHMPIHPYVTAGGVYAYFRDIIEALDFPSLVYFKDPEISDRVLVDLAPLQNLVGVKYAINDLPRFAKVVRSIPEEHQIAWICGTAEKWAPFFWHAGAKGFTSGLVNLLPQKAVEMLEALRNNDNDAVWRIWEDIVPFEDLRGKYNQGNNVVVIKEAMEMLRQNAGVTRAPVNELSNEDKQLVTELLSSWKLLQPTKGEGHHHHHH | not failed |
| MSLAPYRVDFILLEHFSMASFTVAMDVLVTANLLRADSFQFTPLSLDGDRVLSDLGLELVATELSAAALKELDLLVVCGGLRTPLKYPELDRLLNDCAAHGMALGGLWNGAWFLGRAGVLDDYGCSIHPEQRASLSERSPQTRITPASFTLDRDRLSAASPNGAMELMLGLVRRLYGDGLAEGVEEILSFSGAREGHHHHHH | not failed |
| MSLAQKLRQASSRLLGVVFELQQPFHGDLVEQIYAAATRRGYDVMLSAVAPSRAEKVAVQALMRERCEAAILLGTRFDTDELGALADRVPALVVARASGLPGVGAVRGDDVAGITLAVDHLTELGHRNIAHIDGADAPGGADRRAGFLAAMDRHGLSASATVVTGGTTETEGAEGMHTLLEMPTPPTAVVAFNDRCATGVLDLLVRSGRDVPADISVVGYDDSRLARIPHVQMTTISQDATHMAEAAVDGALAQISGDKAVDLVLAPHLVRRATTGPVAHREGHHHHHH | not failed |
| MSLAQYPVIGIDDDEFATAKKLITKQEVRAVTLSKLRLQDDLVMWDIGAGSASVSIEASNLMPNGRIFALERNPQYLGFIRDNLKKFVARNVTLVEAFAPEGLDDLPDPDRVFIGGSGGMLEEIIDAVDRRLKSEGVIVLNAVTLDTLTKAVEFLEDHGYMVEVACVNVAKTKGLTEYKMFESHNPVYIITAWKSDEGHHHHHH | not failed |
| MSLASLIGLAVCTGNAFSPALAAEAKQPNLVIIMADDLGYGDLATYGHQIVKTPNIDRLAQEGVKFTDYYAPAPLSSPSRAGLLTGRMPFRTGIRSWIPSGKDVALGRNELTIANLLKAQGYDTAMMGKLHLNAGGDRTDQPQAQDMGFDYSLANTAGFVTDATLDNAKERPRYGMVYPTGWLRNGQPTPRADKMSGEYVSSEVVNWLDNKKDSKPFFLYVAFTEVHSPLASPKKYLDMYSQYMSAYQKQHPDLFYGDWADKPWRGVGEYYANISYLDAQVGKVLDKIKAMGEEDNTIVIFTSDNGPVTREARKVYELNLAGETDGLRGRKDNLWEGGIRVPAIIKYGKHLPQGMVSDTPVYGLDWMPTLAKMMNFKLPTDRTFDGESLVPVLEQKALKREKPLIFGIDMPFQDDPTDEWAIRDGDWKMIIDRNNKPKYLYNLKSDRYETLNLIGKKPDIEKQMYGKFLKYKTDIDNDSLMKARGDKPEAVTWGEGHHHHHH | not failed |
| MSLASLPISNFFTFNHQSTLFTKVKNFMGVKHIGDCMKALINGTIYTSFSPVKKVSGLVISNERVLYAGDSSTALRIAELAGGEIIDLKGKFVMPAFFDSHLHLDELGMSLEMVDLRGVKSMEELVERVKKGRGRIIFGFGWDQDELGRWPTREDLDVIDRPVFLYRRCFHVAVMNSKMIDLLNLKPSKDFDESTGIVRERALEESRKIINEKILTVKDYKHYIESAQEHLLSLGVHSVGFMSVGEKALKALFELEREGRLKMNVFAYLSPELLDKLEELNLGKFEGRRLRIWGVKLFVDGSLGARTALLSEPYTDNPTTSGELVMNKDEIVEVIERAKPLGLDVAVHAIGDKAVDVALDAFEEAEFSGRIEHASLVRDDQLERIKELKVRISAQPHFIVSDWWIVNRVGEERAKWAYRLKTLSSITKLGFSTDSPIEPADPWVSIDAAVNRYVVDPGERVSREEALHLYTHGSAQVTLAEDLGKLERGFRAEYIILDRDPLKEMKGIITITTDPNSSSVDKLAAALEHHHHHH | not failed |
| MSLASYFIGVDVGTGSARAGVFDLQGRMVGQASREITMFKPKADFVEQSSENIWQAVCNAVRDAVNQADINPIQVKGLGFDATCSLVVLDKEGNPLTVSPSGRNEQNVIVWMDHRAITQAERINATKHPVLEFVGGVISPEMQTPKLLWLKQHMPNTWSNVGHLFDLPDFLTWRATKDETRSLCSTVCKWTYLGHEDRWDPSYFKLVGLADLLDNNAAKIGATVKPMGAPLGHGLSQRAASEMGLIPGTAVSVSIIDAHAGTIGILGASGVTGENANFDRRIALIGGTSTAHMAMSRSAHFISGIWGPYYSAILPEYWLNEGGQSATGALIDHIIQSHPCYPALLEQAKNKGETIYEALNYILRQMAGEPENIAFLTNDIHMLPYFHGNRSPRANPNLTGIITGLKLSTTPEDMALRYLATIQALALGTRHIIETMNQNGYNIDTMMASGGGTKNPIFVQEHANATGCAMLLPEESEAMLLGSAMMGTVAAGVFESLPEAMAAMSRIGKTVTPQTNKIKAYYDRKYRVFHQMYHDHMRYQALMQEGEGHHHHHH | not failed |
| MSLCINPQCSKPQNPDNVLFCQTCGSELLLEGRYRVVSVLGGGGFGKTFAVNDTRTQTARVLKVLINNHPKAVELFQREAQVLALLNYPGIPTVEANGYFVYFPRNIQEPMHCLIMEKIEGLDLGEYLRQRDYRPIDEKLALQWFKEVVTILHQVHQQGLFHRDIKPSNIMLRADGRLVLIDFGTARSVTGTYIAKQAVGQVTGVISAGYTPSEQINGQAVQQSDFFALGRTFIYLLTGKEPSDPTIYNYLKDELHWRDGLLSSESNSVPPTVGYGVPPTVGDRTNILPQFADLLDQMMERLPGQRPQNTHIILQRLADIEKNLHPSSPPPPKPKGWTRRRLITVVGFSSLGLTGALAISRLLPKTTVIVSQEGGGDYKTIGAAMQNAQPGMRILVRPGLYQESLVLDKALKIIGDGAKAEIIIESKGASCLVVKTDQAEIRGLTFRSRAGTENKQYFAVDISQGQIILADCDITSDSLSGIGIHGATANPVIQKCQIHDGKQSGIYLYENSRGTIEDCDLFGNTTTEITVDAAQPIIRRCKIRQDKEGGILFRNQAQGTVEDCDIFNNNLSGIEIRDSSNPIIQKCRIHDNQQGDGILVHLNGRGTVEDCNIFGNGFSGVEIRDRGNPVIRRCNINKNKYYGVYAYKNSMGTVENCDLTGNIRSAINVDETSQLQRSGNVELEHHHHHH | failed |
| MSLDCRERIEKDLELLEKNLMEMKSIKLSDDEEAVVERALNYRDDSVYYLEKGDHITSFGCITYAHGLLDSLRMLHRIIEGHHHHHH | not failed |
| MSLDIAVVGIGYVGLVSATCFAELGANVRCIDTDRNKIEQLNSGTIPIYEPGLEKMIARNVKAGRLRFGTEIEQAVPEADIIFIAVGTPAGEDGSADMSYVLDAARSIGRAMSRYILIVTKSTVPVGSYRLIRKAIQEELDKREVLIDFDIASNPEFLKEGNAIDDFMKPDRVVVGVDSDRARELITSLYKPMLLNNFRVLFMDIASAEMTKYAANAMLATRISFMNDVANLCERVGADVSMVRLGIGSDSRIGSKFLYPGCGYGGSCFPKDVKALIRTAEDNGYRMEVLEAVERVNEKQKSILFDKFSTYYKGNVQGRCVAIWGLSFKPGTDDMREAPSLVLIEKLLEVGCRVRVYDPVAMKEAQKRLGDKVEYTTDMYDAVRGAEALFHVTEWKEFRMPDWSALSQAMAASLVIDGRNVYELPADSDFTLLNIGNSAIESEGHHHHHH | not failed |
| MSLDIEQQFLNDLDNQLWRAADKLRSNLDAANYKHVVLGLIFLKYVSDAFEERQQELTELFQKDDDDNIYYLPREDYDSDEAYQQAIAEELEIGDYYTEKNVFWVPKTARWNKLRDVITLPTGSVIWQDEQGEDVKLRSVSWLIDNAFDDIEKANPKLKGILNRISQYQLDADKLIGLINEFSLTSFNNPEYNGEKLNLKSKDILGHVYEYFLGQFALAEGKQGGQYYTPKSIVTLIVEMLEPYKGRVYDPAMGSGGFFVSSDKFIEKHANVKHYNASEQKKQISVYGQESNPTTWKLAAMNMVIRGIDFNFGKKNADSFLDDQHPDLRADFVMTNPPFNMKDWWHEKLADDPRWTINTNGEKRILTPPTGNANFAWMLHMLYHLAPTGSMALLLANGSMSSNTNNEGEIRKTLVEQDLVECMVALPGQLFTNTQIPACIWFLTKDKNAKNGKRDRRGQVLFIDARKLGYMKDRVLRDFKDEDIQKLADTFHNWQQEWSEENNQAGFCFSADLALIRKNDFVLTPGRYVGAEAEEDEGHHHHHH | not failed |
| MSLDKIRYGIMSTAQIVPRFVAGLRESAQAEVRGIASRRLENAQKMAKELAIPVAYGSYEELCKDETIDIIYIPTYNQGHYSAAKLALSQGKPVLLEKPFTLNAAEAEELFAIAQEQGVFLMEAQKSVFLPITQKVKATIQEGGLGEILWVQSVTAYPNVDHIPWFYSREAGGGALHGSGSYPLQYLQYVLGKEIQEVTGTATYQQGATDSQCNLALKFAEGTLGNIFINVGLKIPSEMTICGTKGQIVIPNFWKTDCAYYTDAQGNTVKWSEQFTSEFTYEINHVNQCLQDKKLTSPVMTKELTIATVKIVESFYQEWFDNEGHHHHHH | not failed |
| MSLDMKEHPDAEVQKNQVLTLEDWKEKWVTRHISFHQEQGHQLLKKHLDTFLKGQSGLRVFFPLCGKAIEMKWFADRGHTVVGVEISEIGIREFFAEQNLSYTEEPLAEIAGAKVFKSSSGSISLYCCSIFDLPRANIGKFDRIWDRGALVAINPGDHDRYADIILSLLRKEFQYLVAVLSYDPTKHAGPPFYVPSAELKRLFGTKCSMQCLEEVDALEERHKAWGLDYLFEKLYLLTEK | not failed |
| MSLEALMNVQFFDHAHHKLKIRGLQSPVDVLTFEGREQLSTPFRYDIQFTSSDKAIAPESVLMQDGAFSLTAPPVQGMPVQTALRTLHGVITGFKHLSSSQDEARYEVRLEPRMALLTRSRQNAIYQNQTVPQIVEKILRERHQMRGQDFVFNLKSEYPAREQVMQYGEDDLTFVSRLLSEVGIWFRFATDARLKIEVIEFYDDQSGYERGLTLPLRHPSGLFDGETEAVWGLNTAYSVVEKSVSTRDYNYREATAEMTTGQHDATGGDNTTYGEAYHYADNFLQQGDKEAAESGAFYARIRHERYLNEQAILKGQSTSSLLMPGLEIKVQGDDAPAVFRKGVLITGVTTSAARDRSYELTFTAIPYSERYGYRPALIPRPVMAGTLPARVTSTVKNDIYAHIDKDGRYRVNLDFDRDTWKPGYESLWVRQSRPYAGDTYGLHLPLLAGTEVSIAFEEGNPDRPYIAGVKHDSAHTDHVTIQNEGHHHHHH | not failed |
| MSLEDRKNERLPSDLARRATAIIEMPDGVLVTASRGGRYNLPGGKANRGELRSQALIREIREETGLRINSMLYLFDHITPFNAHKVYLCIAQGQPKPQNEIERIALVSSPDTDMDLFVEGRAILRRYARLRNEETAKGEALRALLGLARYIAKVDEGHHHHHH | not failed |
| MSLEEWIKADSLEKADEYHKRYNYAVTNPVRRKILRMLDKGRSEEEIMQTLSLSKKQLDYHLKVLEAGFCIERVGERWVVTDAGKIVDKIRG | not failed |
| MSLEGFICKFNRKRRLYIENIMQVRVTGILIEDEKVLLVKQKVANRDWSLPGGRVENGETLEEAMIREMREETGLEVKIKKLLYVCDKPDASPSLLHITFLLERIEGEITLPSNEFDHNPIHDVQMVPINELSYYGFSETFINLISGGLANAGSYQGLKRNIGEGHHHHHH | not failed |
| MSLEKLDTNTFEQLIYDEGKACLVMFSRKNCHVCQKVTPVLEELRLNYEESFGFYYVDVEEEKTLFQRFSLKGVPQILYFKDGEYKGKMAGDVEDDEVEQMIADVLED | not failed |
